From US20210032329A1 (VACCINEX, published 2021)

Assays:
marmoset SEMA4D-His = target: T1, marmoset SEMA4D-His (marmoset, UniProt A0A8I3W811 22-734); test: BIACORE; antibody captured with goat anti-human IgG Fc, marmoset SEMA4D-His as analyte
T1 construct: also called CD100-His; not shown: His tag
T1 sequence: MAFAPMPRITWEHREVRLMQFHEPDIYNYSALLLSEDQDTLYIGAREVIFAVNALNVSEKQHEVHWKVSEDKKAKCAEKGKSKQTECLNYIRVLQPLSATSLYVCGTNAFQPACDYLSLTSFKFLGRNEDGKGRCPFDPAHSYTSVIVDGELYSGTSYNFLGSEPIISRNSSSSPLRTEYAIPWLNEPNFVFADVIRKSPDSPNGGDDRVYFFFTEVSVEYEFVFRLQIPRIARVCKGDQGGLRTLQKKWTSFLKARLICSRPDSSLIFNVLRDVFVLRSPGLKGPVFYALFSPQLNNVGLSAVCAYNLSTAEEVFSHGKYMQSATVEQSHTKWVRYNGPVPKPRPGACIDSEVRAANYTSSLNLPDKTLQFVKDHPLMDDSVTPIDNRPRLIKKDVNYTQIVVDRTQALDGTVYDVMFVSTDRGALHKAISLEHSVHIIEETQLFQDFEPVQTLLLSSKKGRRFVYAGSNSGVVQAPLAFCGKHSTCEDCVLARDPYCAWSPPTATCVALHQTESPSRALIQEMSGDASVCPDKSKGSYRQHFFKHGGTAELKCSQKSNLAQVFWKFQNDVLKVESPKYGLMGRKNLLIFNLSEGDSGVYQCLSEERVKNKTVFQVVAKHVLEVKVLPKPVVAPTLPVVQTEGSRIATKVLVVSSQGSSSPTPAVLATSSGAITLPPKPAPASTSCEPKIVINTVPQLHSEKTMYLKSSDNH
Procedure: The binding characteristics of MAb D2517 were determined by BIACORE assay, as follows.

human SEMA4D-His = target: T2, human SEMA4D-His (human, UniProt Q92854 22-734, limits assumed); test: receptor blocking; antibody dilution series pre-incubated with SEMA4D-His, binding to 293PLXNB1 cells (Plexin B1) read by flow cytometry
T2 construct: also called CD100-His; not shown: His tag, detected with anti-6xHis-APC
T2 sequence (looked up): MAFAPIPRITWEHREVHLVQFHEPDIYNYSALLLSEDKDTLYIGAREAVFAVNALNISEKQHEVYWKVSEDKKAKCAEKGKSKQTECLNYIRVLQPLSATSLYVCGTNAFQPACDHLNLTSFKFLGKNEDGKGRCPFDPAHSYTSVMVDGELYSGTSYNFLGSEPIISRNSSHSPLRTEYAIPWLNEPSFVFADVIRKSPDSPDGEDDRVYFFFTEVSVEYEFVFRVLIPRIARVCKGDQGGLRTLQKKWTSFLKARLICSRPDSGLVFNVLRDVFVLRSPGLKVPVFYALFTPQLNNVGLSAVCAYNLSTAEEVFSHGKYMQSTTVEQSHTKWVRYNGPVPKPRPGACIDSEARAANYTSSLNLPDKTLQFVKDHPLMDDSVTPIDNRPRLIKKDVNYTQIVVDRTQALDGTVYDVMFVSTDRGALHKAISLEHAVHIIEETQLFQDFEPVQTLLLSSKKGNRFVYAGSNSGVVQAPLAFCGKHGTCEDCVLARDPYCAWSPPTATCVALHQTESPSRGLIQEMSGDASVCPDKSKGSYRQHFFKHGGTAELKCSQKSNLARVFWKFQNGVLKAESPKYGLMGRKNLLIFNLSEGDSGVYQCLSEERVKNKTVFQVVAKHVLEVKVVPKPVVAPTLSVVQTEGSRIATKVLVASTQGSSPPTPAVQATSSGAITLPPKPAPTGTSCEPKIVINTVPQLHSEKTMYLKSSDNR
Procedure: (§1) After washing, the cells were stained with anti-6xHis-APC (30 min, 4° C.), washed and analyzed by flow cytometry on FACS Canto II.

[1] = target: T3, cynomolgus monkey SEMA4D-His (cynomolgus monkey); test: as above
T3 construct: also called Cyno SEMA4D
Procedure: as §1

mouse SEMA4D-His = target: T4, mouse SEMA4D-His (mouse, UniProt O09126 24-733, limits assumed); test: as above
T4 construct: not shown: His tag, detected with anti-6xHis-APC
T4 sequence (looked up): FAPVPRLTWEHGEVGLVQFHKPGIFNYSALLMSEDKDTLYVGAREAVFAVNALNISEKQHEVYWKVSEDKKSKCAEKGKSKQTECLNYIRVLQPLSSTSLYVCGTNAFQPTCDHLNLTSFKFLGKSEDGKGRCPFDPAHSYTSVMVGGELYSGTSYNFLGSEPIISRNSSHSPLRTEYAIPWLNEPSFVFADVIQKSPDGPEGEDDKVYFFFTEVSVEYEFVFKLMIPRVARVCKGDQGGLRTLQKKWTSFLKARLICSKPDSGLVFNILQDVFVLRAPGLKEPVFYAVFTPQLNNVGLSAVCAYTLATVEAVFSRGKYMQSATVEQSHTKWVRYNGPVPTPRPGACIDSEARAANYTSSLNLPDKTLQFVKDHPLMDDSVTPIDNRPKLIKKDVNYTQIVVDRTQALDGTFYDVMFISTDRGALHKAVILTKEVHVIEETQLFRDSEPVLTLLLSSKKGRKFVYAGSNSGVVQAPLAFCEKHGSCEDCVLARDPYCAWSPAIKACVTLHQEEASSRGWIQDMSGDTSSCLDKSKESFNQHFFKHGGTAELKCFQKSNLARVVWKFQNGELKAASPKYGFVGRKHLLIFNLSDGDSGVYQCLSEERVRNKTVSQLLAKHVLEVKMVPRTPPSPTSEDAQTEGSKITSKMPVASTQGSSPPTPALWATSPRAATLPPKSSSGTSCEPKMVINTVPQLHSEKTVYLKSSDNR
Procedure: as §1

rat SEMA4D-His = target: T5, rat SEMA4D-His (rat, UniProt A0A8I6G5Q1 23-734); test: as above
T5 construct: not shown: His tag, detected with anti-6xHis-APC
Procedure: as §1

B1: MAb D2517 (antibody, V domains shown)
VH: EVQLVESGGGLVQPGGSLRLSCAASGFIFSDYWMVWVRQAPGKGLEYVAHMNQDGGARYYAESVRGRFTISRDNAKNSLYLQMNSLRAEDTAVYYCARDPWGYDSWGQGTLVT
VL: not shown
Marmoset SEMA4D-His
  Ka: 2.47e+08 M⁻¹
  Kd: 4 nM
  koff: 0.0032 s⁻¹
  kon: 789000 M⁻¹ s⁻¹
Human SEMA4D-His
  EC50: 1 nM
[1]
  EC50: 1.2 nM
Mouse SEMA4D-His
  EC50: 1.2 nM
Rat SEMA4D-His
  EC50: 1.5 nM
